The test concerns the target taxol-stabilised ATTO 647N-labelled microtubules (UniProt P02550 1-451, ATTO 647N label (which chain and residues not stated) | ATTO 647N label (which chain and residues not stated)). As to the kind of experiment: TIRF microscopy, saturation binding curve; CENP-V-eGFP titrated onto surface-bound taxol-stabilised ATTO 647N-labelled microtubules; BRB80 (80 mM PIPES pH 6.8, 1 mM MgCl2, 1 mM EGTA) with 10 µM taxol, casein, DTT; 25 °C, 15 m equilibration; GFP intensity per micrometer of at least 100 microtubules per condition; Hill (cooperative) fit. Conditions: both partners purified.

B1: His6-CENP-V-eGFP (natural protein, UniProt Q9CXS4 1-252, looked up)
chain: MRRTRSAVATGPREQRRSGATGGLSGGESRAQRSRSRTRAGAGGGGGAVGPQPSAKPRPKPPPRAQEAAAEEPPPAVTPAASVSALDLGEQRERWETFQKRQRLSFEGAAKLLLDTFEYQGLVKHTGGCHCGAVRFEVWASADLHIFDCNCSICKKKQNRHFIVPASRFKLLKGAESITTYTFNTHKAQHTFCKRCGVQSFYTPRSNPGGFGIAPHCLDEGTVRSVVTEEFNGSDWERAMKEHKTIKNMSKE
notes: CENP-V (centromere protein V); also called CENP-V-GFP; recombinant CENP-V-eGFP
A word on the Kd: it is a measure of binding affinity in units of concentration. A low value points to tighter binding. Turning to B1, binding was characterised by a dissociation constant (Kd) of 53.2 ± 4.5 nM.
